# The DeepSol protein solubility set
# Assay: soluble on expression in E. coli; label from the status in PepcDB or PDB records
row,Sequence,soluble on expression in E. coli
1,MAYTIGVDFGTLSGRAVLVHVQTGEELAAAVKEYRHAVIDTVLPKTGQKLPRDWALQHPADYLEVLETTIPSLLEQTGVDPKDIIGIGIDFTACTILPIDSSGQPLCMLPEYEEEPHSYVKLWKHHAAQKHADRLNQIAEEEGEAFLQRYGGKISSEWMIPKVMQIAEEAPHIYEAADRIIEAADWIVYQLCGSLKRSNCTAGYKAMWSEKAGYPSDDFFEKLNPSMKTITKDKLSGSIHSVGEKAGSLTEKMAKLTGLLPGTAVAVANVDAHVSVPAVGITEPGKMLMIMGTSTCHVLLGEEVHIVPGMCGVVDNGILPGYAGYEAGQSCVGDHFDWFVKTCVPPAYQEEAKEKNIGVHELLSEKANHQAPGESGLLALDWWNGNRSTLVDADLTGMLLGMTLLTKPEEIYRALVEATAYGTRMIIETFKESGVPIEELFAAGGIAEKNPFVMQIYADVTNMDIKISGSPQAPALGSAIFGALAAGKEKGGYDDIKKAAANMGKLKDITYTPNAENAAVYEKLYAEYKELVHYFGKENHVMKRLKTIKNLQFSSAAKK,soluble
2,MAHHHHHHSLKTKIIVIVGPTAVGKTALAIEVAKRFNGEVVSGDSQQVYRGLDIGTAKASPEEQAAVPHHLIDVREITESYSAFDFVSEAKMTIEDIHSRGKLAIIAGGTGLYIQSLLEGYHLGGETPHEEILAYRASLEPYSDEELAHLVEQAGLEIPQFNRRRAMRALEIAHFGQDLENQEILYEPLIICLDDERSQLYERINHRVDLMFEAGLLDEAKWLFDHSPNVQAAKGIGYKELFPYFRGEQTFEEARESLKQATRRFAKRQLTWFRNRMQVTFYQIGESGVQDRILSQIEEFLDDEG,not soluble
3,MGSDKIHHHHHHMLLTPDDLKACEVELARRSLADFARMAWPVLEPATPLKWGWALDAICEHLEAVSRGESKRLLMNVPPGSMKSLLTGVIWPAYEWGPMDHAEMRFLGTAHKQDLAVRDNLKCRRLIQSQWYQERWPVVLTSDQNAKTKFENARTGFREAMAFESMTGSRGDRVILDDPHSVDDANSAAKLASGVTTFREALPSRVNNDQSAIVIVMQRLNEADVSAVAIDLGYDHLCIPMRYEPGRSKWVYGSGDPRKEEGELMFPERFPEEQVSELEKTMGSYAVAGQLQQRPAPRGGGIIKTAWFRSYRELPALEWRQIHADTAQKTGEENDYSVFQCWGRTTTGQAVLIDQIRGKWEAPDLLTQARAFWLKHKSIPGPVLRAMKVEDKVSGTGLIQTLRREGVAVIPVQRNKDKISRAYDAAAFIESGNVLLPEWADWLDGFTNEAATFPSGAHDDQLDPMFDAIHDVQFGMTVSAAVTRPIPRSVTAFNKR,not soluble
4,MTEEFNESMINDIKEGDKVTGEVQQVEDKQVVVHINGGKFNGIIPISQLSTHHIENPSEVVKQGDEIEAYVTKIEVDEENDSGVYILSKRQLETEKSYEYLQEKLDNDEIIEAKVTEVVKGGLVVDVGQRGFVPASLISTDFIEDFSVFDGQTIRIKVEELDPENNRVILSRKAVEQAENDVKKASLLESLNAGDVIKGKVARLTNFGAFVDIGGVDGLVHVSELSHEHVDSPEDVVSVGQEVDVKVKSVEKDAERISLSIKDTLPTPFESIKGQFHEDDVIEGKVVRLANFGAFVEIAPGVQGLVHISEIAHEHIGTPGEKLEPGQQVNVKILGIDEENERISLSIKATLPKEDVVESDDATTQSYLSNDSIEDNPTLGDVFGDKFKDLKF,soluble
5,MGSDKIHHHHHHMLDQIKAHLLDSINDIVSSANQFVLHPEKDFSRQSQLTMKTMIQAILTMGGNTLAKELLDLDLPVSQSAFVQRRYQIKHQAFKTLFRDITSKIPISDNLPILAVDGSDVILPRNRFDKTTSFQTGPHHTPYNLIHINALYTLEQEIYHDLRIQDNREVDERAAFIDMMKTSSFKQALVIMDRGYESYNVMAHCQERNWSYIIRIRDGNHSMKSGFNLPDTPCFDEAFDLNICRKQTNDMKELYRDFPNQYHFLPHNASFDFLLNSSRKSDPLQFYELHFRMVRLEIKPGFFETLVTNTDYSPEKLKELYAYRWGIETSFRDLKYSIGLTHFHAKKKEGILQEIYARFINFNVCKWLTSHVAIKTSKLKQTYKICFSDAVYACRKFLRNKLTSFQLETYIAKHLSIIRPNRTFQRKIKSKAPVSFTYRVT,not soluble
6,MGSDKIHHHHHHPEQQVQQFAQLPVGFKNMGNTCYLNATLQALYRVNDLRDMILNYNPSQGVSNSGAQDEEIHKQIVIEMKRCFENLQNKSFKSVLPVVLLNTLRKCYPQFAERDSQGGFYKQQDAEELFTQLFHSMSIVFGDKFSEDFRIQFKTTIKDTANDNDITVKENESDSKLQCHISGTTNFMRNGLLEGLNEKIEKRSDLTGANSIYSVEKKISRLPKFLTVQYVRFFWKRSTNKKSKILRKVVFPFQLDVADMLTPEYAAEKVKVRDELRKVEKEKNEKEREIKRRKFDPSSSENVMTPREQYETQVALNESEKDQWLEEYKKHFPPNLEKGENPSCVYNLIGVITHQGANSESGHYQAFIRDELDENKWYKFNDDKVSVVEKEKIESLAGGGESDSALILMYKGFGL,soluble
7,MPQDMSQFLQVFFEETEEHLATLELLLIGLDLDRPDSETLHGIFRAAHSIKGSSGMFGFDDITAVTHELETLLDRIRCGQMHLRPDMISSFLEARDVLQRLLDAHRSGRPDPGVPLLETVERLRGWLRVPEQEAAEEGFGLFDDAPARETADDDAFGFFDEGPGAPERAAAPEAFGLFDEAPGAPAASEAFGLFDEAPGSPPAEERAFGLFDGAPGSPAAPSAPAQAVAAPARGAVAPVRGDGESGSIRVSVEKIDSLINLVGELVITQAMLGQLGEQLDPSRHERLQHALAQLEHNTRDLQESVMSIRMLPINFIFSRFPRLVRDTATRLGKQVELHLHGEHTELDKSVIEKLSDPLTHIVRNSIDHGIETPAERLAAGKPASGTVKLAASHQGGSVVVEVSDDGRGLSRPRILAKARERNLPVHDGMSDAEVWQLVFMPGFSTAETVTELSGRGVGMDVVKRNIGAMGGRIDIDSAPGMGTRIGIRLPLTLAILDGLIVAVEAVNYVIPLTYIVESLQARSDDVRGLGGEDNAMIRVRGEYLPLFSLHELLRIGGEAPAPEQGIVVILESEGRSFALQVDELVGQQQVVIKSLEQNFRRVEGIAGATIMGDGSVALILDVDALPRLAAREDTADE,not soluble
8,MSGKTKRLMVMAGGTGGHVFPGLAVAHHLMAQGWQVRWLGTADRMEASLVPQHGIEIDFIKISGLRGKGLMAQLTAPIRIYRAVRQAQKIMRDYQPNVVLGMGGYVSGPGGLAAWLCGVPVVLHEQNGIAGLTNRWLARIAKKVLQAFPGAFPNADVVGNPVRTDVLALPLPAVRLSGREGPIRVLVIGGSQGARILNQTLPLVAASLGEQITLWHQVGKGALPEVSQAYQQAGQAGHLVVEFIDDMAAAYAWADVVVCRSGALTVSEVAAAGLPAIFVPFQHKDRQQYWNALPLEKAGAAKIIEQPQFTATSVSSLLASWDRATLLSMAERARSVAIPDATERVAAEVVAASKSA,not soluble
9,MSLINKHVISEKIKKAIVEANIKINPEVEEIIERYEGPFSDIIKENYRVSKEEKLPLCQDTGIVEFFVFIGHEVKLEEPIEETLNRAVGEVYSEYPFRYSVVSDPLFERINTGTNTPAIVHIFQVKGKSLEIRFLVRGGGSENLTVLRMMTPTSDVEKVKEFVIEHIKEHGAKACPPLHVGIGIGGTADKALLLSKLALTKSFKERNKDPKYAGLEKELEKELNFLGIGFQGLGKGITVYSVHIEHFPTHIATLPVAVSVDCYLCRRGKVTFEDEGGSHHHHHH,soluble
10,MPYKEKDIEKKYFSIGEVSAMFKVAPSLIRFWETEFDIFKPQKNRRGNRQFTKEDIENFRLIYNLVKERGYTLQGAKEMLKVDRHKSKDKMELLDSLQKVRDFLVDLKKQME,not soluble
11,MSLAYETFAFVYDEVMDESLYQKWLDFSNRHLPQGTQQILEMACGTGALAVDFAKSGYDVTALDLSEEMLMIASERAFEEEVPVQFVQGNMLDLSEVGQYQAITCFSDSLCYMANRQEVQQVFDEVYQALEEEGTFIFDVHSTYKIDSVFPEYSYHYQTEEFAFLWDSYAGEKEHSIEHFLTFFVKEQETDEHFVRYDELHQERTYSLDNYLRMLESAGFMNVKVYADFTDEAPTETSERWFFVCQRDEGHHHHHH,soluble
